The assay concerns the target GFP:2B (Grapevine fanleaf virus movement protein 2B fused to EGFP) (Grapevine fanleaf virus). The experiment in a line: FRET or BRET; FRET-FLIM in living N. benthamiana leaf epidermal cells after transient co-expression by agro-infiltration; GFP fusion of the movement protein as donor, RFP fusion as acceptor; fluorescence lifetime of the donor measured at tubules or plasmodesmata. (In BRET a luciferase serves as donor, and the signal depends on an acceptor being close.)

Consider “GFP:2B (Grapevine fanleaf virus movement protein 2B fused to EGFP) (natural protein)”, for which the mean FRET (percent) amounted to 24%.

The values are drawn from publication PMC2944810.
